B1: GFP-Atg11 (wild type) [S. cerevisiae] / PA-Atg19 [S. cerevisiae] (parent complex)
chain 1: MADADEYSTAPTQQEITPLQTTATIINAISGECITTNVDFFVSLDKFKQFIARKWKIPPDQLLILLPYGNKLKPSMFKELLINRSFTLNDFYVYDRRLFSLVSKPTPTNLLTSKDSNPMNSPNSNDLTETLEYLIKNSHISQYQGSDTIMIKPMPSPLEDADVDLSRLNYHSVTSLLTTNLGWLSALEIDVHYFKSLIPDIIAHIKRIFDGLTVCSQYLKLYCFDVESLYNSNVQFLNQLVDNGMTSKWEKCFNDTLSKLTALEGDSLQKFINIESLLENEKSVKILNHSINGKLNKIKREIDENASFRDIITVNIDRLRQMFTPNESKFELEDQMAESFEVLVSEMRTRSRNVLDKEEEEFNSQEFLKSMNVMLEKDKKESVKTLFTISQALYSQIGELIDLKKSLQKHAVAILGNIAFTQMEILGIKRLLLNECNKDLELYKKYEVEFAQVEDLPLIYGLYLIEKYRRLSWFQQILSFISNFNQDLELFKQNELRTRNKWVKNFGSIATVFCEDLLSSSDFKRLNEYHSHTSPPNEDEEDENENSIANYRQDLVKVSQAIDNYMTQIKETDVSEPIIDLLSKTLFETKRFHIIYSNFKNNNNNSSNGNSISPEGSIALKSDDVVKGYKTRIKKLESLLHEFQYSDIGHWPQGVLNTHLKPFRGSATSINKKKFLGASVLLEPANISEVNIDSVSQANNHQIQELESNVDDLLHQLQLLKEENNRKSMQISEMGKKISDLEVEKTAYRETLTNLNQELARLTNEEQSHRTEIFTLNASFKKQLNDIISQDNEKIEKLTGDYDDVSKSRERLQMDLDESNKKHEQEVNLLKADIERLGKQIVTSEKSYAETNSSSMEKGEKFETIPLAEDPGRENQISAYTQTLQDRIFDIISTNIFILENIGLLLTFDNNNNIQIRRVKGLKKGTAQSNILDESTQMLDAHDNSLIKSPVFQKLKDEYELIKSVANGSEKDTQQSIFLGNITQLYDNKLYEVAVIRRFKDIETLAKKLTKENKIKRTLLERFQREKVTLRNFQIGDLALFLPTRENVNSVGSMSSSTSSLSSSFSSVDLSTPPPLDAMSIQSSPSVIHSNVINQASISGRDKNKLMRPWAAFTAFEESTRYFLKDEKGLTKGKEWFVGRIVTLEHFVADSPSNNPFRLPKGSVWFQVTAVVVSYQGV
chain 2: MNNSKTNQQMNTSMGYPLTVYDECNKFQLIVPTLDANIMLWCIGQLSLLNDSNGCKHLFWQPNDKSNVRILLNNYDYGHLFKYLQCQRKCSVYIGEGTLKKYNLTISTSFDNFLDLTPSEEKESLCREDAHEDPVSPKAGSEEEISPNSTSNVVVSRECLDNFMKQLLKLEESLNKLELEQKVTNKEPNHRISGTIDIPEDRSELVNFFTELKTVKQLEDVFQRYHDYERLSQECDSKTEIASDHSKKETKIEVEPPNERSLQITMNQRDNSLYFQLFNNTNSVLAGNCKLKFTDAGDKPTTQIIDMGPHEIGIKEYKEYRYFPYALDLEAGSTIEIENQYGEVIFLGKYGSSPMINLRPPSRLSAESLQASQEPFYSFQIDTLPELDDSSIISTSISLSYDGDDNEKALTWEEL
B2: GFP-Atg11 (wild type) [S. cerevisiae] / Atg9-PA [S. cerevisiae] (parent complex)
chain 1: B1 chain 1
chain 2: MERDEYQLPNSHGKNTFLSRIFGLQSDEVNPSLNSQEMSNFPLPDIERGSSLLHSTNDSREDVDENDLRVPESDQGTSTEEEDEVDEEQVQAYAPQISDGLDGDHQLNSVTSKENVLETEKSNLERLVEGSTDDSVPKVGQLSSEEEEDNEFINNDGFDDDTPLFQKSKIHEFSSKKSNTIEDGKRPLFFRHILQNNRPQRDTQKLFTSSNAIHHDKDKSANNGPRNINGNQKHGTKYFGSATQPRFTGSPLNNTNRFTKLFPLRKPNLLSNISVLNNTPEDRINTLSVKERALWKWANVENLDIFLQDVYNYYLGNGFYCIILEKILNICTLLFVVFVSTYMGHCVDYSKLPTSHRVSDIIIDKCYSNSITGFTKFFLWMFYFFVILKIVQLYFDVQKLSELQNFYKYLLNISDDELQTLPWQNVIQQLMYLKDQNAMTANVVEVKAKNRIDAHDVANRIMRRENYLIALYNSDILNLSLPIPLFRTNVLTKTLEWNINLCVMGFVFNESGFIKQSILKPSQREFTREELQKRFMLAGFLNIILAPFLVTYFVLLYFFRYFNEYKTSPGSIGARQYTPIAEWKFREYNELYHIFKKRISLSTTLANKYVDQFPKEKTNLFLKFVSFICGSFVAILAFLTVFDPENFLNFEITSDRSVIFYITILGAIWSVSRNTITQEYHVFDPEETLKELYEYTHYLPKEWEGRYHKEEIKLEFCKLYNLRIVILLRELTSLMITPFVLWFSLPSSAGRIVDFFRENSEYVDGLGYVCKYAMFNMKNIDGEDTHSMDEDSLTKKIAVNGSHTLNSKRRSKFTAEDHSDKDLANNKMLQSYVYFMDDYSNSENLTGKYQLPAKKGYPNNEGDSFLNNKYSWRKQFQPGQKPELFRIGKHALGPGHNISPAIYSTRNPGKNWDNNNNGDDIKNGTNNATAKNDDNNGNNDHEYVLTESFLDSGAFPNHDVIDHNKMLNSNYNGNGILNKGGVLGLVKEYYKKSDVGR
B3: GFP-Atg11 (wild type) [S. cerevisiae] / Atg1-PA [S. cerevisiae] (parent complex)
chain 1: B1 chain 1
chain 2: MGDIKNKDHTTSVNHNLMASAGNYTAEKEIGKGSFATVYRGHLTSDKSQHVAIKEVSRAKLKNKKLLENLEIEIAILKKIKHPHIVGLIDCERTSTDFYLIMEYCALGDLTFLLKRRKELMENHPLLRTVFEKYPPPSENHNGLHRAFVLSYLQQLASALKFLRSKNLVHRDIKPQNLLLSTPLIGYHDSKSFHELGFVGIYNLPILKIADFGFARFLPNTSLAETLCGSPLYMAPEILNYQKYNAKADLWSVGTVVFEMCCGTPPFRASNHLELFKKIKRANDVITFPSYCNIEPELKELICSLLTFDPAQRIGFEEFFANKVVNEDLSSYELEDDLPELESKSKGIVESNMFVSEYLSKQPKSPNSNLAGHQSMADNPAELSDALKNSNILTAPAVKTDHTQAVDKKASNNKYHNSLVSDRSFEREYVVVEKKSVEVNSLADEVAQAGFNPNPIKHPTSTQNQNVLLNEQFSPNNQQYFQNQGENPRLLRATSSSSGGSDGSRRPSLVDRRLSISSLNPSNALSRALGIASTRLFGGANQQQQQQQITSSPPYSQTLLNSQLFHELTENIILRIDHLQHPETLKLDNTNIVSILESLAAKAFVVYSYAEVKFSQIVPLSTTLKGMANFENRRSMDSNAIAEEQDSDDAEEEDETLKKYKEDCLSTKTFGKGRTLSATSQLSATFNKLPRSEMILLCNEAIVLYMKALSILSKSMQVTSNWWYESQEKSCSLRVNVLVQWLREKFNECLEKADFLRLKINDLRFKHASEVAENQTLEEKGSSEEPVYLEKLLYDRALEISKMAAHMELKGENLYNCELAYATSLWMLETSLDDDDFTNAYGDYPFKTNIHLKSNDVEDKEKYHSVLDENDRIIIRKYIDSIANRLKILRQKMNHQN

Variants of: B1
Assay: CoIP (quantified western blot); proteins overexpressed with a CUP1 promoter in an atg11∆ strain; five independent replicates; read off a plot

Variant	ratio to parent
chain 1 Y565E	~0.88

Variants of: B2
Assay: CoIP (quantified western blot); proteins overexpressed with a CUP1 promoter in an atg11∆ strain; ≥ 3 independent replicates; read off a plot

Variant	ratio to parent
chain 1 Y565E	~-0.05

Variants of: B3
Assay: CoIP (quantified western blot); endogenously driven Atg1-PA; overexpressed GFP-Atg11; four independent replicates; read off a plot

Variant	ratio to parent
chain 1 Y565E	~0.13

Reference: paper PMC8805157 (2021)
